In the RNAGym collection of RNA variant scans (doi:10.7554/elife.80360):

B1: Hammerhead Ribozyme (parent)
chain: ACCGGAUGUGCUUUCCGGUCUGAUGAGUCCGUGAGGACGAAACAG

Variants of: B1
Test: self-cleavage, relative activity (ratio to wild type); higher = more cleavage; co-transcriptional

Variant	self-cleavage
ACCGGCUGUGCUUUCCGGUCUGAUGAGUCCGUGAGGACGAAUCAG [A6C A42U]	0.295
ACCGGCUGUGCUUUCCGGUCUGAUGAGUCCGUGAGGACGAAGCAG [A6C A42G]	0.329
ACCGGCUGUGCUUUCCGGUCUGAUGAGUCCGUGAGGACGAUACAG [A6C A41U]	0.383
ACCGGCUGUGCUUUCCGGUCUGAUGAGUCCGUGAGGACGACACAG [A6C A41C]	0.274
ACCGGCUGUGCUUUCCGGUCUGAUGAGUCCGUGAGGACGAGACAG [A6C A41G]	0.374
ACCGGCUGUGCUUUCUGGUCUGAUGAGUCCGUGAGGACGAAACAG [A6C C16U]	0.689
ACCGGCUGUGCUUUCGGGUCUGAUGAGUCCGUGAGGACGAAACAG [A6C C16G]	0.372
ACCGGCUGUGCUUUCAGGUCUGAUGAGUCCGUGAGGACGAAACAG [A6C C16A]	0.643
ACCGUAUGUGCUUUCCGGUCUGAUGAGUCCGUGAGGACGAAACAC [G5U G45C]	0.443
ACCGUAUGUGCUUUCCGGUCUGAUGAGUCCGUGAGGACGAAACAU [G5U G45U]	0.529
ACCGUAUGUGCUUUCCGGUCUGAUGAGUCCGUGAGGACGAAACAA [G5U G45A]	0.431
ACCGGCUGUGCUUUCCGGUCUGAUGAGUCCGUGAGGAAGAAACAG [A6C C38A]	0.469
ACCGGCUGUGCUUUCCGGUCUGAUGAGUCCGUGAGGAUGAAACAG [A6C C38U]	0.67
ACCGGCUGUGCUUUCCGGUCUGAUGAGUCCGUGAGGAGGAAACAG [A6C C38G]	0.427
ACCGUAUGUGCUGUCCGGUCUGAUGAGUCCGUGAGGACGAAACAG [G5U U13G]	1.02
ACCGUAUGUGCUAUCCGGUCUGAUGAGUCCGUGAGGACGAAACAG [G5U U13A]	1.37
ACCGUAUGUGCUCUCCGGUCUGAUGAGUCCGUGAGGACGAAACAG [G5U U13C]	1.15
ACCGGCUGUGCUUUCCGGUCUGAUGAGUCCGUGAGGACGAAACUG [A6C A44U]	0.36
ACCGGCUGUGCUUUCCGGUCUGAUGAGUCCGUGAGGACGAAACGG [A6C A44G]	1.06

Variant	self-cleavage
ACCGGCUGUGCUUUCCGGUCUGAUGAGUCCGUGAGGACGAAACCG [A6C A44C]	0.391
ACCGGCUGUGCUUUCCGGUCUGAUGAGUCCGUGAGGACGGAACAG [A6C A40G]	0.38
ACCGGCUGUGCUUUCCGGUCUGAUGAGUCCGUGAGGACGUAACAG [A6C A40U]	0.37
ACCGGCUGUGCUUUCCGGUCUGAUGAGUCCGUGAGGACGCAACAG [A6C A40C]	0.386
ACCGGCUGUUCUUUCCGGUCUGAUGAGUCCGUGAGGACGAAACAG [A6C G10U]	1.01
ACCGGCUGUCCUUUCCGGUCUGAUGAGUCCGUGAGGACGAAACAG [A6C G10C]	0.515
ACCGGCUGUACUUUCCGGUCUGAUGAGUCCGUGAGGACGAAACAG [A6C G10A]	0.68
ACCGGCUGUGCUUUCCUGUCUGAUGAGUCCGUGAGGACGAAACAG [A6C G17U]	0.37
ACCGGCUGUGCUUUCCCGUCUGAUGAGUCCGUGAGGACGAAACAG [A6C G17C]	0.269
ACCGGCUGUGCUUUCCAGUCUGAUGAGUCCGUGAGGACGAAACAG [A6C G17A]	0.348
ACCGUAUGUGCUUCCCGGUCUGAUGAGUCCGUGAGGACGAAACAG [G5U U14C]	0.837
ACCGUAUGUGCUUGCCGGUCUGAUGAGUCCGUGAGGACGAAACAG [G5U U14G]	1.29
ACCGUAUGUGCUUACCGGUCUGAUGAGUCCGUGAGGACGAAACAG [G5U U14A]	1.24
ACCGGCUGUGCUUUCCGGUCUGAUGAGUCCGUGAGGCCGAAACAG [A6C A37C]	0.475
ACCGGCUGUGCUUUCCGGUCUGAUGAGUCCGUGAGGGCGAAACAG [A6C A37G]	0.333
ACCGGCUGUGCUUUCCGGUCUGAUGAGUCCGUGAGGUCGAAACAG [A6C A37U]	0.449
ACCGUACGUGCUUUCCGGUCUGAUGAGUCCGUGAGGACGAAACAG [G5U U7C]	0.716
ACCGUAGGUGCUUUCCGGUCUGAUGAGUCCGUGAGGACGAAACAG [G5U U7G]	0.708
ACCGUAAGUGCUUUCCGGUCUGAUGAGUCCGUGAGGACGAAACAG [G5U U7A]	0.87

Variant	self-cleavage
ACCGGCUGUGCUUUCCGGUCUGAUGAGUGCGUGAGGACGAAACAG [A6C C29G]	0.482
ACCGGCUGUGCUUUCCGGUCUGAUGAGUACGUGAGGACGAAACAG [A6C C29A]	0.44
ACCGGCUGUGCUUUCCGGUCUGAUGAGUUCGUGAGGACGAAACAG [A6C C29U]	0.695
ACCGGCUGUGCUUUCCGGUCUGAUGAGUCCGUGAGGACGAAACAG [A6C]	0.722
ACCGGCUGUGCUUUCCGGUCUGAUGAGUCCGUUAGGACGAAACAG [A6C G33U]	0.579
ACCGGCUGUGCUUUCCGGUCUGAUGAGUCCGUCAGGACGAAACAG [A6C G33C]	0.472
ACCGGCUGUGCUUUCCGGUCUGAUGAGUCCGUAAGGACGAAACAG [A6C G33A]	0.689
ACCGGCUGUGCUUUCCGGUCUGAUGAGUCGGUGAGGACGAAACAG [A6C C30G]	0.437
ACCGGCUGUGCUUUCCGGUCUGAUGAGUCAGUGAGGACGAAACAG [A6C C30A]	0.588
ACCGGCUGUGCUUUCCGGUCUGAUGAGUCUGUGAGGACGAAACAG [A6C C30U]	0.51
ACCGUAUGUGCUUUCCGGCCUGAUGAGUCCGUGAGGACGAAACAG [G5U U19C]	0.396
ACCGUAUGUGCUUUCCGGACUGAUGAGUCCGUGAGGACGAAACAG [G5U U19A]	0.29
ACCGUAUGUGCUUUCCGGGCUGAUGAGUCCGUGAGGACGAAACAG [G5U U19G]	0.379
ACCGGCUGUGCUUUCCGGUCUGGUGAGUCCGUGAGGACGAAACAG [A6C A23G]	0.306
ACCGGCUGUGCUUUCCGGUCUGCUGAGUCCGUGAGGACGAAACAG [A6C A23C]	0.333
ACCGGCUGUGCUUUCCGGUCUGUUGAGUCCGUGAGGACGAAACAG [A6C A23U]	0.271
ACCGGCUGUGCUUUCCGGUCUGAUGAGUCCGUGACGACGAAACAG [A6C G35C]	0.391
ACCGGCUGUGCUUUCCGGUCUGAUGAGUCCGUGAUGACGAAACAG [A6C G35U]	0.744
ACCGGCUGUGCUUUCCGGUCUGAUGAGUCCGUGAAGACGAAACAG [A6C G35A]	0.568
